From patent US20250092148A1 (Kyowa Kirin, published 2025)

T1: human CD131 R221A (human, UniProt P32927 17-897)
T1 construct: whole, on cells; also called R221 Ala substitution
T1 sequence (looked up): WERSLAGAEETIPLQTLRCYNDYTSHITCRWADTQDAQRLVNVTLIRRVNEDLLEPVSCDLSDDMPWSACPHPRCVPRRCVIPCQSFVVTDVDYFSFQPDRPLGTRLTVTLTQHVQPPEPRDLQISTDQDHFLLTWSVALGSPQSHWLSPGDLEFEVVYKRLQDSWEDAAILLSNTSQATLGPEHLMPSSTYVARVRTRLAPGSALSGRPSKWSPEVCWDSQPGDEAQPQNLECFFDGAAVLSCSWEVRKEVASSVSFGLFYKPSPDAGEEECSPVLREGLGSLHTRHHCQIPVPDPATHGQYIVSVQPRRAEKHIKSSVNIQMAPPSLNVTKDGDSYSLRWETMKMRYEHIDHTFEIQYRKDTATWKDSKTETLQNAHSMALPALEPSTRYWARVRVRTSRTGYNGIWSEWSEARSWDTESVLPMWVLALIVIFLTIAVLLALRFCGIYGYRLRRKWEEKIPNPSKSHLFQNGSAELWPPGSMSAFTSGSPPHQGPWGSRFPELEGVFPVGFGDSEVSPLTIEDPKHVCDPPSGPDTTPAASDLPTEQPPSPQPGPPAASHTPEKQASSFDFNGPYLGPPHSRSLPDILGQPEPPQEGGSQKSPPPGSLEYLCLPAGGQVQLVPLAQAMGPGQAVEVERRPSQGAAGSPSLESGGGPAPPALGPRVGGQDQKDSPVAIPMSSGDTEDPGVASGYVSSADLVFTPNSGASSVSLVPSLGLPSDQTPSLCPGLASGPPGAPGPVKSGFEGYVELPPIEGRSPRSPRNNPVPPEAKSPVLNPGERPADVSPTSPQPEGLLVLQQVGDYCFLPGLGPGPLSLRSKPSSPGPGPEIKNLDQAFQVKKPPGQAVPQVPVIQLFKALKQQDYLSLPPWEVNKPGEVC

T2: human CD116 N156A (human, UniProt P15509 23-400)
T2 construct: whole, on cells
T2 sequence (looked up): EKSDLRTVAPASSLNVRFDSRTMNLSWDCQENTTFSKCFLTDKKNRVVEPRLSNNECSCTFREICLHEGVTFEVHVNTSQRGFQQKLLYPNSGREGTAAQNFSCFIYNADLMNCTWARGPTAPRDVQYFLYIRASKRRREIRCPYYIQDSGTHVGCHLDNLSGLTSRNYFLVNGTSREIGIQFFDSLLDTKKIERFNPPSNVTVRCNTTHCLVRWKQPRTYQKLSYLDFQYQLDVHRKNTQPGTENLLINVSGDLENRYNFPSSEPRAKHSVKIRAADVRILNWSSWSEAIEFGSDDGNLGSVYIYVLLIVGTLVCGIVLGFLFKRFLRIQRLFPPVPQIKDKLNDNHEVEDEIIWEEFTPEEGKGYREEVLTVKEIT

T3: human CD116 K158A (human, UniProt P15509 23-400)
T3 construct: whole, on cells
T3 sequence (looked up): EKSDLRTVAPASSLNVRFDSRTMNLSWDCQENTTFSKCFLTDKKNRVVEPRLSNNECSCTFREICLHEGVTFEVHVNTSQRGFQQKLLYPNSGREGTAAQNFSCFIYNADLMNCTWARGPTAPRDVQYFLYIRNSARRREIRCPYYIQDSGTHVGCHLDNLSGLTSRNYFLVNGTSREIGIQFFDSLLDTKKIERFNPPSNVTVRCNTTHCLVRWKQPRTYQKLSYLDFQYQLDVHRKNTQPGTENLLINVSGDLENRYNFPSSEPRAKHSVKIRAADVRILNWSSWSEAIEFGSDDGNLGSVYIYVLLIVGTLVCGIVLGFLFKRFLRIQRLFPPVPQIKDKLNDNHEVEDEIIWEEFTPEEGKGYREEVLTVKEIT

T4: human CD116 Y248A (human, UniProt P15509 23-400)
T4 construct: whole, on cells
T4 sequence (looked up): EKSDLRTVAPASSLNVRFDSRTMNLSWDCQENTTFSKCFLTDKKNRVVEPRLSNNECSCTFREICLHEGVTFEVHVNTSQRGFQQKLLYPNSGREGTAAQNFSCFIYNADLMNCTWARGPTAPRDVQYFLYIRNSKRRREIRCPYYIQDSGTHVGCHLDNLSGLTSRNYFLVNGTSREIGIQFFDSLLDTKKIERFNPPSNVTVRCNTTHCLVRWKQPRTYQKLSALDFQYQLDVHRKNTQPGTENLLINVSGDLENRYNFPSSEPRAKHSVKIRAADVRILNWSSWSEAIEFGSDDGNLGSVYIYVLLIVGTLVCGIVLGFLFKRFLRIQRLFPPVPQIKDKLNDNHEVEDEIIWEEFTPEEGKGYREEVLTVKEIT

T5: human CD116 L249A (human, UniProt P15509 23-400)
T5 construct: whole, on cells
T5 sequence (looked up): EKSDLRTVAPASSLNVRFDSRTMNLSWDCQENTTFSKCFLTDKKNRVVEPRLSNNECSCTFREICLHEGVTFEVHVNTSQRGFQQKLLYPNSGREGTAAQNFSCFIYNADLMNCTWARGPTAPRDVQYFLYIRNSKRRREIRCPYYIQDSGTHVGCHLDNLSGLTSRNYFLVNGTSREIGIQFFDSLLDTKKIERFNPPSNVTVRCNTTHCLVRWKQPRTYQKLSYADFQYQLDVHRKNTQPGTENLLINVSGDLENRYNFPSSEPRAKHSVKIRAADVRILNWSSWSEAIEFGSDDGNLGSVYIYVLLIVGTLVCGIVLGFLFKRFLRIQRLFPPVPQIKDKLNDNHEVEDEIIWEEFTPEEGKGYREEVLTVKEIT


How the values were obtained:
[1] = target: T1, human CD131 R221A; assay: flow cytometry, Fab on HEK-293T cells expressing the mutant; labels of this column stand one row too low, mutant assigned after shifting them up (text: R221 is an epitope residue)
[2] = target: T2, human CD116 N156A; assay: flow cytometry, Fab 0.25 µg/mL on HEK-293T cells expressing the mutant
[3] = target: T3, human CD116 K158A; assay: as above
[4] = target: T4, human CD116 Y248A; assay: as above
[5] = target: T5, human CD116 L249A; assay: as above

| Binder | Binding Reactivity (% WT) [1] | Binding Reactivity (% WT) [2] | Binding Reactivity (% WT) [3] | Binding Reactivity (% WT) [4] | Binding Reactivity (% WT) [5] |
| --- | --- | --- | --- | --- | --- |
| anti-CD131 antibody 131-B2, Fab (Fab, V domains shown, Fab made from the antibody by an enzyme treatment) VH: QVQLVQSGAEVKEPGASVKISCKASGYTFTNDYMHWVRQAPGQGLEWMGIINPTGGGTSYAQKFRGRVTMTRDTSTSTVYMELSSLRSEDTAVFYCARERYYGSGTYFNIGLWYFDLWGRGTLVTVSS VL: not shown | 38 % WT |  |  |  |  |
| anti-CD116 antibody 116-408, Fab (Fab, V domains shown) VH: EVQLVQSGAEVKKPGASVKVSCKVSGYTLTDLSMHWVRQAPGKGLEWMGGFDPEDGERIYAQKFQGRVTMTEDTSTDTAYMELSSLRSEDTAVYYCATGLFYYYYGMDVWGQGTMVTVSS VL: not shown |  | 5.8 % WT | 35.2 % WT | 78.2 % WT | 92.4 % WT |
